Assay results: patent US20160362464A1 (University of California, published 2016)
Each block holds one binder with its values, some of them ahead of it.

B1: His-DAPLE-CT (aa 1650-2028) (other)
chain: GTAPPYVGVRPCSASPSSEMVTLEEFLEESNRSSPTHDTPSCRDDLLSDYFRKASDPPAIGGQPGPPAKKEGAKMPTNFVAPTVKMAAPTSEGRPLKPGQYVKPNFRLTEAEAPPSVAPRQAQPPQSLSLGRPRQAPVPPASHAPASRSASLSRAFSLASADLLRASGPEACKQESPQKLGAPEALGGRETGSHTLQSPAPPSSHSLARERTPLVGKAGSSCQGPGPRSRPLDTRRFSLAPPKEERLAPLHQSATAPAIATAGAGAAAAGSGSNSQLLHFSPAAAPAARTKPKAPPRSGEVATITPVRAGLSLSEGDGVPGQGCSEGLPAKSPGRSPDLAPHLGRALEDCSRGSVSKSSPASPEPGGDPQTVWYEYGCV
notes: Recombinant, purified from E. coli; also called His-DAPLE-CT WT; DAPLE-CT WT; not shown: His tag and vector residues of pET28b
B4: His-Gαi3 (GDP-loaded) (other, rat, UniProt P08753 1-354, looked up)
chain: MGCTLSAEDKAAVERSKMIDRNLREDGEKAAKEVKLLLLGAGESGKSTIVKQMKIIHEDGYSEDECKQYKVVVYSNTIQSIIAIIRAMGRLKIDFGEAARADDARQLFVLAGSAEEGVMTSELAGVIKRLWRDGGVQACFSRSREYQLNDSASYYLNDLDRISQTNYIPTQQDVLRTRVKTTGIVETHFTFKELYFKMFDVGGQRSERKKWIHCFEGVTAIIFCVALSDYDLVLAEDEEMNRMHESMKLFDSICNNKWFTDTSIILFLNKKDLFEEKIKRSPLTICYPEYTGSNTYEEAAAYIQCQFEDLNRRKDTKEVYTHFTCATDTKNVQFVFDAVTDVIIKNNLKECGLY
notes: also called recombinant His-Gαi3; not shown: His tag

Assays:
His-Gαi3 (GDP-loaded) [1] = molecular target: B4; assay: cell-based or functional assay
[2] = molecular target: T1, GST-Gαi3 preloaded with GDP (inactive) (rat, UniProt P08753 1-354); assay: displacement of Gβγ from preformed GST-Gαi3·Gβγ complexes, immunoblot fitted to a single-site competition curve (FIG. 3C)
T1 construct: Immobilized on glutathione beads; Same polypeptide as m11, other nucleotide state; also called GST-Gαi3 WT; not shown: glutathione S-transferase tag of the pGEX-4T-1 vector
From the text: FIGS. 3A-3J. DAPLE's GBA motif triggers the release of ‘free’ Gβγ subunits, which in turn enhance Rac1 and PI3K-Akt signaling. (A) DAPLE's GBA motif and Gβγ subunits are predicted to dock onto an overlapping binding site on Gαi. Binding areas (in red) for DAPLE (left) or Gβγ (right) on Gαi (solid grey) were extracted from a homology-based model of DAPLE-Gαi3 and the crystal structure of the Gαi1·Gβγ complex (PBD: 1GG2), respectively. (B, C) DAPLE displaces Gβγ subunits from Gαi3 via its GEF motif. GST-Gαi3·Gβγ preformed complexes immobilized on glutathione beads were incubated with increasing concentrations of His-DAPLE-CT WT or F1675A (FA). Bound proteins were analyzed by immunoblotting (B) and Gβγ binding data fitted to a single-site competition curve (C). Mean±S.E.M. of 3 independent experiments. […] Control (shLuc) or two clones of DAPLE-depleted HeLa cell lines (shDAPLE 1 and 2) (described in FIGS. 10A & 10B) were incubated in 2% serum media (D) or starved and treated (+) or not (β) with Wnt5a ([…]) for 5 min (E) and analyzed for Rac1 activation by pulldown assays using GST-PBD. […] DAPLE-depleted (shDAPLE 1) HeLa cells transiently transfected with myc-DAPLE-WT or FA were starved and stimulated with Wnt5a and analyzed for Rac1 activation as in E. (G, H) DAPLE's GBA motif is required for activation of PI3K-Akt signaling in HeLa cells, as determined by phosphorylation of Akt at 5473. […]

[3] = molecular target: B1; assay: GST pulldown, purified proteins, inactive or active conformations (FIG. 1H)
Method: Equal aliquots of lysates of HEK293 cells expressing Gαi3-FLAG were incubated with anti-FLAG mAb or control IgG and protein G beads. Immune complexes were analyzed for DAPLE and Gαi3 (FLAG) by immunoblotting (IB). Gβ was monitored as positive Gαi3-binding control. […] Resin-bound proteins were eluted, separated by SDS-PAGE and analyzed by Ponceau S-staining and immunoblotting (IB) with the indicated antibodies. No binding to GST alone was detected. […] No binding of myc-DAPLE or Gβ to GST alone was detected. […] Insert, Purified GST-DAPLE-CT and GST-GIV (aa 1671-1755, containing the GBA motif) immobilized on glutathione-agarose beads were incubated with increasing amounts (0.01-3 μM) of purified His-Gαi3 (GDP-loaded) and binding analyzed by immunoblotting as described in (D). No binding to GST alone was detected at the highest His-Gαi3 concentration tested. Graph, Gαi3 binding was quantified by measuring band intensities and data fitted to a single-site binding hyperbola (DAPLE=BLUE, GIV=RED) to determine the equilibrium dissociation constants (Kd). Mean±S.E.M of 4 independent experiments. (G) DAPLE binds to all three Gαi subunits. […] (H) DAPLE selectively binds to Gαi, but not Gao.

His-Gαi3 (GDP-loaded) [4] = molecular target: B4; assay: GST pulldown with 0.01-3 µM His-Gαi3, band intensities fitted to a one-site binding curve (FIG. 1F)
GST-DAPLE-CT = molecular target: T2, GST-DAPLE-CT (human, UniProt Q9P219 1650-2028); assay: as above
T2 construct: also called GST-DAPLE-CT WT; not shown: glutathione S-transferase tag of the pGEX-4T vector
T2 sequence: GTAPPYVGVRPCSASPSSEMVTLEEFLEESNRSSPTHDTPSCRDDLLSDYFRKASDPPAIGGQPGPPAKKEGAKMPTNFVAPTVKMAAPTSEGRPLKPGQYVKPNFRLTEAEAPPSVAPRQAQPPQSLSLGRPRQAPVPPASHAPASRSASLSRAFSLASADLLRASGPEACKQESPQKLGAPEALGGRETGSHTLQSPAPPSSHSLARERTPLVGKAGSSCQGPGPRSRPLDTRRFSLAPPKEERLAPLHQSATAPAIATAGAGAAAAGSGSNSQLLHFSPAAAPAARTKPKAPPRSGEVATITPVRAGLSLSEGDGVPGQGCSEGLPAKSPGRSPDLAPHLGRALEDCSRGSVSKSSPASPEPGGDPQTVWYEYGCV

GST-FZD7-CT = molecular target: T3, GST-FZD7-CT (UniProt P08515 1-218 = GST); assay: GST-FZD7-CT pulldown of His-Gαi3 with His-DAPLE-CT WT against His-Gαi3 alone (FIG. 4E)
T3 construct: Immobilized on glutathione beads directly from bacterial lysates; also called GST-FZD7R-CT; Fzl17-CT
T3 sequence (P08515 whole entry): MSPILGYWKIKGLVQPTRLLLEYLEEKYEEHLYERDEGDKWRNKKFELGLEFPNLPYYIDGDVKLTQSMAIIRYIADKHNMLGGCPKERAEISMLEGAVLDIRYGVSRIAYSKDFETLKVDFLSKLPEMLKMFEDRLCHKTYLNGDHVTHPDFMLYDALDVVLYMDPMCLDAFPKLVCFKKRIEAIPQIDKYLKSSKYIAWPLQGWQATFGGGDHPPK

[5] = molecular target: T4, myc-DAPLE full length F1675A (human, UniProt Q9P219 1-2028); assay: co-immunoprecipitation with anti-FLAG mAb from Cos7 cells (FIG. 2E)
T4 construct: Expressed in Cos7 cells; used as cell lysate; also called myc-DAPLE FA; DAPLE-FA; not shown: N-terminal myc tag of myc-pcDNA 3.1 (+)

Binder: B1
EC50 of the acceleration of Gαi3 steady-state GTPase activity (His-Gαi3 (GDP-loaded) [1]): 250 nM
rate of steady-state GTP hydrolysis of His-Gαi3 (His-Gαi3 (GDP-loaded) [1]): ~3 fold
IC50 [2]: 160 nM

binding result [3]: no binding
B2: GST-Gao (other, rat, UniProt P59215 1-354, looked up)
chain: MGCTLSAEERAALERSKAIEKNLKEDGISAAKDVKLLLLGAGESGKSTIVKQMKIIHEDGFSGEDVKQYKPVVYSNTIQSLAAIVRAMDTLGVEYGDKERKADSKMVCDVVSRMEDTEPFSAELLSAMMRLWGDSGIQECFNRSREYQLNDSAKYYLDSLDRIGAADYQPTEQDILRTRVKTTGIVETHFTFKNLHFRLFDVGGQRSERKKWIHCFEDVTAIIFCVALSGYDQVLHEDETTNRMHESLMLFDSICNNKFFIDTSIILFLNKKDLFGEKIKKSPLTICFPEYPGSNTYEDAAAYIQTQFESKNRSPNKEIYCHMTCATDTNNIQVVFDAVTDIIIANNLRGCGLY
notes: also called Gαo; not shown: glutathione S-transferase tag of the pGEX-4T-1 vector

Kd (His-Gαi3 (GDP-loaded) [4]): 240 nM
B3: GST-GIV (aa 1671-1755) (other, UniProt Q3V6T2 1671-1755, looked up)
chain: IKTGSPGSEVVTLQQFLEESNKLTSVQIKSSSQENLLDEVMKSLSVSSDFLGKDKPVSCGLARSVSGKTPGDFYDRRTTKPEFLR
notes: range 1671-1755; also called GST-GIV CT 1671-1755 aa; not shown: glutathione S-transferase tag

Binder: B4
Kd (GST-DAPLE-CT): 110 nM
fold increase of binding in the presence of DAPLE-CT WT (GST-FZD7-CT): ~5 fold

binding result [5]: no binding
B5: Gαi3-FLAG (other, rat, UniProt P08753 1-354, looked up)
chain: MGCTLSAEDKAAVERSKMIDRNLREDGEKAAKEVKLLLLGAGESGKSTIVKQMKIIHEDGYSEDECKQYKVVVYSNTIQSIIAIIRAMGRLKIDFGEAARADDARQLFVLAGSAEEGVMTSELAGVIKRLWRDGGVQACFSRSREYQLNDSASYYLNDLDRISQTNYIPTQQDVLRTRVKTTGIVETHFTFKELYFKMFDVGGQRSERKKWIHCFEGVTAIIFCVALSDYDLVLAEDEEMNRMHESMKLFDSICNNKWFTDTSIILFLNKKDLFEEKIKRSPLTICYPEYTGSNTYEEAAAYIQCQFEDLNRRKDTKEVYTHFTCATDTKNVQFVFDAVTDVIIKNNLKECGLY
notes: Expressed in HEK293 or Cos7 cells; immunoprecipitated with anti-FLAG mAb; also called FLAG-Gαi3; not shown: FLAG tag
